Tests used:
[1] = target: BG505 SOSIP.664 trimer (HIV-1 BG505); assay: negative-stain electron microscopy
[2] = target: BG505 SOSIP.664 trimer, captured by anti-histidine (SPR of Fig. 2d) (HIV-1 BG505); assay: SPR

Substance: 35O22 Fab
- stoichiometry N (Fabs per trimer) [1]: 3

Substance: 35O22 antibody (full-length IgG)
- Kd [2]: 5.6 nM

From article PMC4224615
